{"source": "the RNAGym collection of RNA variant scans (doi:10.1021/acssynbio.7b00057)", "parents": {"B1": {"name": "Pistol ribozyme (parent)", "chain": "GGGUCGUUGUUCCAUAAUCGCGUGGAUAUGGCACGCAAGUUUCUACCGGGCACCGUAAAUGUCCGACUGGAGCCGUUCGGGCGGCUAUAAACAGACCUCAGGCCCGAAGCGUGGCGGCACCUGCCGCCGGUGGUAAAAAAGAUCGGAAGAGCACACGUCU"}}, "data": [{"variants_of": "B1", "assay": "aptazyme ON/OFF ratio, guanine; higher = stronger switching; co-transcriptional cleavage with and without guanine", "values": [{"variant": "U7A U8G U10C U11G C12A C13A", "aptazyme ON/OFF ratio": 1.42}, {"variant": "U7A U8A U10G U11G C12U C13U", "aptazyme ON/OFF ratio": 1.27}, {"variant": "U7A G9U U10A U11G C12U", "aptazyme ON/OFF ratio": 1.39}, {"variant": "G9C U10G U11A C13A", "aptazyme ON/OFF ratio": 1.08}, {"variant": "U7A U8A G9U U10G U11A C12A C13A", "aptazyme ON/OFF ratio": 1.19}, {"variant": "U7C G9C U10G C12A", "aptazyme ON/OFF ratio": 1.12}, {"variant": "U7G U8G G9A U10C U11A C12U C13U", "aptazyme ON/OFF ratio": 1.08}, {"variant": "U7C U8G G9U U10C U11A C12G C13A", "aptazyme ON/OFF ratio": 1.14}, {"variant": "U10C U11C C12U C13A", "aptazyme ON/OFF ratio": 1.07}, {"variant": "U8C U10G U11G C12G C13U", "aptazyme ON/OFF ratio": 1.26}, {"variant": "U8G G9C U10C U11G C13G", "aptazyme ON/OFF ratio": 1.1}, {"variant": "U7C U8G U10G C12G C13A", "aptazyme ON/OFF ratio": 1.11}, {"variant": "U8C G9U U10G U11G C12U C13A", "aptazyme ON/OFF ratio": 1.11}, {"variant": "U7A G9A U10G", "aptazyme ON/OFF ratio": 1.53}, {"variant": "U7A U8C U10C U11G C12G", "aptazyme ON/OFF ratio": 1.25}, {"variant": "U8C G9C U10G U11C C12G", "aptazyme ON/OFF ratio": 1.21}, {"variant": "U7C U8C U11A", "aptazyme ON/OFF ratio": 1.66}, {"variant": "U8C G9A U10C U11A C13G", "aptazyme ON/OFF ratio": 1.15}, {"variant": "U7A G9A U10G U11C C13G", "aptazyme ON/OFF ratio": 1.11}, {"variant": "U7A U11G C12A C13A", "aptazyme ON/OFF ratio": 1.15}, {"variant": "U7G U8G G9A U10A U11G C12A C13G", "aptazyme ON/OFF ratio": 1.03}, {"variant": "U7A U8G G9A U10A C12A C13G", "aptazyme ON/OFF ratio": 1.06}, {"variant": "U7C U8G G9C U10C U11G C12U", "aptazyme ON/OFF ratio": 1.17}, {"variant": "U7A U8G G9U U10A C12A C13U", "aptazyme ON/OFF ratio": 1.36}, {"variant": "U8C G9A U10C U11C C13U", "aptazyme ON/OFF ratio": 1.01}, {"variant": "U8A G9A C12G C13U", "aptazyme ON/OFF ratio": 1.18}, {"variant": "U7C U8A U10G U11C C12G C13U", "aptazyme ON/OFF ratio": 1.38}, {"variant": "U7G U11G C13A", "aptazyme ON/OFF ratio": 1.06}, {"variant": "U7G G9A U11C C13A", "aptazyme ON/OFF ratio": 1.11}, {"variant": "U8G G9U C12G C13G", "aptazyme ON/OFF ratio": 1.27}, {"variant": "U7A U8A G9U U11G C13U", "aptazyme ON/OFF ratio": 1.16}, {"variant": "U7C U8G G9C U10G U11G C12U C13G", "aptazyme ON/OFF ratio": 1.09}, {"variant": "G9U U10G U11C C12G C13G", "aptazyme ON/OFF ratio": 1.06}, {"variant": "U8G G9C U10C U11A C12G C13U", "aptazyme ON/OFF ratio": 1.11}, {"variant": "U7G G9A U10A U11A C12G C13U", "aptazyme ON/OFF ratio": 1.12}, {"variant": "U7C U8A G9C U10A U11A C12G C13A", "aptazyme ON/OFF ratio": 1.1}, {"variant": "U7A U8G G9U U11C C12U C13A", "aptazyme ON/OFF ratio": 1.17}, {"variant": "U7G U11A C12U C13A", "aptazyme ON/OFF ratio": 1.19}, {"variant": "U7G G9C C12A", "aptazyme ON/OFF ratio": 1.99}, {"variant": "U7A G9C U10G U11A C12U C13U", "aptazyme ON/OFF ratio": 1.05}, {"variant": "U8G G9A C13G", "aptazyme ON/OFF ratio": 1.07}, {"variant": "U7A U8A U10C U11C C12U C13A", "aptazyme ON/OFF ratio": 1.04}, {"variant": "G9C U10C C12A", "aptazyme ON/OFF ratio": 1.09}, {"variant": "U7G U8A G9U U11G C12G C13A", "aptazyme ON/OFF ratio": 1.01}, {"variant": "U7G U8A G9A U11A C12A C13U", "aptazyme ON/OFF ratio": 1.21}, {"variant": "U8A G9U U10A U11G C13G", "aptazyme ON/OFF ratio": 1.08}, {"variant": "U7C U8C U10C U11G C12A C13U", "aptazyme ON/OFF ratio": 1.52}, {"variant": "U8A G9C U10A U11C C13A", "aptazyme ON/OFF ratio": 1.1}, {"variant": "U8A G9U U10A U11C C12G C13U", "aptazyme ON/OFF ratio": 1.34}, {"variant": "U7C U8A G9C U11G C12U C13G", "aptazyme ON/OFF ratio": 1.14}, {"variant": "U7C U8A G9A U10G U11G C12A C13U", "aptazyme ON/OFF ratio": 1.23}, {"variant": "U7G U8G G9A U10C C13A", "aptazyme ON/OFF ratio": 1.12}, {"variant": "U8G U10A U11A C12A C13U", "aptazyme ON/OFF ratio": 1.13}, {"variant": "U8G U10G", "aptazyme ON/OFF ratio": 1.32}, {"variant": "U7A U8G G9U C12A C13A", "aptazyme ON/OFF ratio": 1.28}, {"variant": "U7C U8A U10A U11A C13U", "aptazyme ON/OFF ratio": 1.17}, {"variant": "U8G G9U U10G U11G C12U C13A", "aptazyme ON/OFF ratio": 1.09}, {"variant": "U8G G9A U11G C12U C13U", "aptazyme ON/OFF ratio": 1.24}, {"variant": "U7G G9A U10A U11C C12G C13G", "aptazyme ON/OFF ratio": 1.1}, {"variant": "U7G U8A G9A U10A U11C C13A", "aptazyme ON/OFF ratio": 1.1}, {"variant": "G9A U10A U11A C12U", "aptazyme ON/OFF ratio": 1.68}, {"variant": "U8A G9C U11C C13A", "aptazyme ON/OFF ratio": 1.06}, {"variant": "U7A U8G U10A U11A C12G", "aptazyme ON/OFF ratio": 1.13}, {"variant": "U7C G9A U10G U11A C12U C13U", "aptazyme ON/OFF ratio": 1.18}, {"variant": "U7G U8A U10G U11C C12A C13A", "aptazyme ON/OFF ratio": 1.43}, {"variant": "U7C U8G G9C U11A C13G", "aptazyme ON/OFF ratio": 1.06}, {"variant": "U8C G9U U10C U11G C13U", "aptazyme ON/OFF ratio": 1.28}, {"variant": "U7A U8G G9U U11A C12A", "aptazyme ON/OFF ratio": 1.59}, {"variant": "U7C G9C U10A U11C C12A C13U", "aptazyme ON/OFF ratio": 1.05}, {"variant": "U7C U8G G9C U10A C12U", "aptazyme ON/OFF ratio": 1.17}, {"variant": "U7A U8C G9A U10G C12A C13G", "aptazyme ON/OFF ratio": 1.2}, {"variant": "U7G U8A G9A U11C C12G", "aptazyme ON/OFF ratio": 1.21}, {"variant": "U7G U8A G9A U10A U11C C13U", "aptazyme ON/OFF ratio": 1.05}, {"variant": "U8C G9A U10C U11A", "aptazyme ON/OFF ratio": 3.76}, {"variant": "U7G G9A U10C U11A C12A C13G", "aptazyme ON/OFF ratio": 1.09}, {"variant": "U8G G9A U10A C12A C13G", "aptazyme ON/OFF ratio": 1.18}, {"variant": "U7G U8G G9U U10G U11C C12G C13U", "aptazyme ON/OFF ratio": 1.14}, {"variant": "U7G U8G G9A U10C U11G C12U C13A", "aptazyme ON/OFF ratio": 1.27}, {"variant": "U8G U10A U11C C12G C13G", "aptazyme ON/OFF ratio": 1.33}, {"variant": "U7A G9C U10C U11C C12G C13G", "aptazyme ON/OFF ratio": 1.09}, {"variant": "U7C G9A U10G U11C C13G", "aptazyme ON/OFF ratio": 1.03}, {"variant": "U7A U8A U11G C12U C13G", "aptazyme ON/OFF ratio": 1.25}, {"variant": "U7G U10C C12G C13A", "aptazyme ON/OFF ratio": 1.09}]}]}
